For 14 molecules, EC50 results are on record in patent US20230095569A1 (published 2023).

Changes are numbered by the printed parent chain.

B1: Ab10 (antibody, V domains shown)
VH: EVMLVESGGGLVKPGGSLKLSCAASGFTFSSYTMSWVRQTPEKRLEWVATISVIGGNTYYVDSVKGRFTISRDKAKNTLYLQMSSLRSEDTALYYCARLGQTQRNAMDYWGQGTSVTVSS
VL: DIVMTQSPSSLSVSAGEKVTMSCKSSQSLLNSGNQKNYLAWYQQKPGQPPKLLIYGASTRESGVPDRFTGSGSGTDFTLTISSVQAEDLAVYYCQNDYSYPLTFGAGTKLELK
B2: Ab17 (antibody, V domains shown)
VH: QVQLKESGPGLVAPSQSLSITCTVSGFSLTSYAISWVRQPPGKGLEWLGEIWTGGGTNYNSALKSRLSISKDNSKSQVFLKMNSLQTDDTARYYCGRLSYGNSLDYWGQGTTLTVSS
VL: B1 VL with S12T, S14T, A40T, G56W, I81V, D97N, Y98F, S99I, A106P
B3: Ab15 (antibody, V domains shown)
VH: EVMLVESGGDLVKPGGSLKLSCAASGFTFSTYTMSWVRQTPEKRLEWVATIVGGGGYTYYLDSVKGRFTISRDNAKNTLYLQMISLRSEDTALYYCARMGLTQRNALDYWGQGTSITVSS
VL: B1 VL with A15E, M21L, S22N, L30F, S73F, Y98H, S99T, T108A
B4: IMAB362 (antibody, V domains shown)
VH: QVQLQQPGAELVRPGASVKLSCKASGYTFTSYWINWVKQRPGQGLEWIGNIYPSDSYTNYNQKFKDKATLTVDKSSSTAYMQLSSPTSEDSAVYYCTRSWRGNSFDYWGQGTTLTVSS
VL: DIVMTQSPSSLTVTAGEKVTMSCKSSQSLLNSGNQKNYLTWYQQKPGQPPKLLIYWASTRESGVPDRFTGSGSGTDFTLTISSVQAEDLAVYYCQNDYSYPFTFGSGTKLEIKR
B5: IMB362 (antibody, V domains shown)
VH: B4 VH
VL: B4 VL
B6: chAb15 (antibody, V domains shown)
VH: B3 VH
VL: B1 VL with A15E, M21L, S22N, L30F, S73F, Y98H, S99T, T108A
B7: chAb17 (antibody, V domains shown)
VH: B2 VH
VL: B1 VL with S12T, S14T, A40T, G56W, I81V, D97N, Y98F, S99I, A106P
B8: chAb10 (antibody, V domains shown)
VH: B1 VH
VL: B1 VL
B9: humanized Ab17 (VH5×VLN1) (antibody, V domains shown)
VH: QVQLQESGPGLVKPSQTLSLTCTVSGFSLTSYAISWVRQPAGKGLEWLGEIWTGGGTNYNSALKSRVSISKDNSKSQVFLKLSSVTAADTARYYCGRLSYGNSLDYWGQGTLVTVSS
VL: DIVMTQSPDSTTVLLGERATINCKSSQSLLNSGNQKNYLAWYQQKPGQPPKLLIYWASTRESGVPDRFSGSGSGTDFTLTISSLQAEDVAVYYCQNNFIYPLTFGPGTKLEIK
B10: humanized Ab10 (VHN1×VLN1) (antibody, V domains shown)
VH: B1 VH with K13Q, K19R, E42G, A75S, S84N, S88A, L93V, S115L
VL: B1 VL with S9D, S12A, K18R, V19A, S22N, T69S, V84L, L89V, L112I
B11: humanized Ab10 (VH3×VLN1) (antibody, V domains shown)
VH: B1 VH with M3Q, K13Q, K19R, T40A, S84N, S88A, S115L
VL: B1 VL with S9D, S12A, K18R, V19A, S22N, T69S, V84L, L89V, L112I
B12: humanized Ab17 (VH1×VLN1) (antibody, V domains shown)
VH: B9 VH with Q5K, Q16E, A41P, T86Q
VL: B9 VL
B13: humanized Ab15 (VH3×VLN1) (antibody, V domains shown)
VH: B3 VH with D10G, L11V, K13Q, K19R, I84N, S88T, S115L
VL: B9 VL with T11L, T12A, L14S, L30F, W56G, S73F, N97D, F98H, I99T, P106A
B14: humanized Ab15 (VHN1×VL2) (antibody, V domains shown)
VH: B3 VH with D10G, K13Q, K19R, E42G, A75S, I84N, S88A, L93V
VL: DIVMTQSPLSLPVTPGEPASISCKSSQSLFNSGNQKNYLAWYLQKPGQPPKLLIYGASTRESGVPDRFTGSGFGTDFTLKISRVEAEDVGVYYCQNDHTYPLTFGAGTKLEIK

The target in the first test is T1, human Claudin18.2 (CLDN18.2) (UniProt P56856 1-261). In words: FACS cell binding; KATO III cells.
For B1, the 50% effective concentration (EC50) amounted to 20.9 nM.
B2 came in with an EC50 of 39.3 nM.
In the case of B3, the EC50 came to 27.2 nM.

The target in a further test is T1, human Claudin18.2 (CLDN18.2). In words: FACS cell binding; SNU620 cells.
Molecule B1 displayed a concentration for a half-maximal effect (EC50) of 5.54 nM.
On the same count and under the same terms, the same measure for B2: 10.8 nM.
In turn, B3 had an EC50 of 5.32 nM.

A further test addresses GAXC031 cells (UniProt P56856 1-261). In words: FACS cell binding; GAXC031 cells.
In the case of B4, the response was half-maximal at 452 nM (EC50).

The target in the next test is SNU620 cells (UniProt P56856 1-261). In words: FACS cell binding; SNU620 cells.
Turning to B5, the EC50 was approximately 7540 nM.

The target of the next test is T1, human Claudin18.2 (CLDN18.2). Kind of test: FACS cell binding; GAXC031 cells.
In turn, B6 registered an EC50 of 25.1 nM.
In the case of B7, the EC50 was 47 nM.
Regarding B8, a half-maximal effect (EC50) was put at 49.2 nM.
Same read-out and setting: the same measure for B9: 48.9 nM.
As to B10, the EC50 came to 43.8 nM.
In the case of B11, the concentration for a half-maximal effect (EC50) was 60.9 nM.
Regarding B12, the response was half-maximal at 43.7 nM (EC50).
On the same count and under the same terms, to B13 belongs 28.6 nM.
B14: the EC50 amounted to 32.2 nM.
